Laboratory results taken from patent publication US20230212549A1 (3B PHARMACEUTICALS, published 2023).
Where “and” joins values, the source holds several entries; their conditions need not be identical. Equal entries are not always repeated. Numbered stars: 1 amine (or outer) side, 2 acyl side, 3 side chain; on linkers, the order of the positions; unused ones are H or OH. Bridge positions count the residues as written; N and C are the ends. Square brackets hold non-standard residues; d marks the D form. * marks the point of attachment. DOTA = O=C(O)CN1CCN(CC(=O)O)CCN(CC(=O)*)CCN(CC(=O)O)CC1; mXylylene = c1cc(C[*:1])cc(C[*:2])c1; NMeF = CN[C@@H](Cc1ccccc1)C(=O)O; Aib = CC(C)(N)C(=O)O; βAla = NCCC(=O)O

B1: Ac-Met-[Cys(3MeBn)-Pro-Pro-Thr-Glu-Phe-cys]-Asp-His-Phe-Arg-Asp-NH2 (peptide)
peptide: Ac-MCPPTEF[dC]DHFRD-NH2
modifications: linker 2-8 via mXylylene
SMILES: CSCC[C@H](NC(C)=O)C(=O)N[C@H]1CSCc2cccc(c2)CSC[C@H](C(=O)N[C@@H](CC(=O)O)C(=O)N[C@@H](Cc2c[nH]cn2)C(=O)N[C@@H](Cc2ccccc2)C(=O)N[C@@H](CCCNC(=N)N)C(=O)N[C@@H](CC(=O)O)C(N)=O)NC(=O)[C@H](Cc2ccccc2)NC(=O)[C@H](CCC(=O)O)NC(=O)[C@H]([C@@H](C)O)NC(=O)[C@@H]2CCCN2C(=O)[C@@H]2CCCN2C1=O
notes: also called 3BP-3182
B2: Ac-Met-[Cys(3MeBn)-Pro-Pro-Thr-Glu-Phe-Cys]-asp-His-Phe-Arg-Asp-NH2 (peptide)
peptide: Ac-MCPPTEFC[dD]HFRD-NH2
modifications: linker 2-8 via mXylylene
SMILES: CSCC[C@H](NC(C)=O)C(=O)N[C@H]1CSCc2cccc(c2)CSC[C@@H](C(=O)N[C@H](CC(=O)O)C(=O)N[C@@H](Cc2c[nH]cn2)C(=O)N[C@@H](Cc2ccccc2)C(=O)N[C@@H](CCCNC(=N)N)C(=O)N[C@@H](CC(=O)O)C(N)=O)NC(=O)[C@H](Cc2ccccc2)NC(=O)[C@H](CCC(=O)O)NC(=O)[C@H]([C@@H](C)O)NC(=O)[C@@H]2CCCN2C(=O)[C@@H]2CCCN2C1=O
notes: also called 3BP-3183
B3: Ac-Met-[Cys(3MeBn)-Pro-Pro-Thr-glu-Phe-Cys]-Asp-His-Phe-Arg-Asp-NH2 (peptide)
peptide: Ac-MCPPT[dE]FCDHFRD-NH2
modifications: linker 2-8 via mXylylene
SMILES: CSCC[C@H](NC(C)=O)C(=O)N[C@H]1CSCc2cccc(c2)CSC[C@@H](C(=O)N[C@@H](CC(=O)O)C(=O)N[C@@H](Cc2c[nH]cn2)C(=O)N[C@@H](Cc2ccccc2)C(=O)N[C@@H](CCCNC(=N)N)C(=O)N[C@@H](CC(=O)O)C(N)=O)NC(=O)[C@H](Cc2ccccc2)NC(=O)[C@@H](CCC(=O)O)NC(=O)[C@H]([C@@H](C)O)NC(=O)[C@@H]2CCCN2C(=O)[C@@H]2CCCN2C1=O
notes: also called 3BP-3179
B4: DOTA-Bal-[Cys(3MeBn)-Pro-Pro-Thr-Glu-Phe-Cys]-Asp-His-Nmf-Arg-Asp-NH2 (peptide)
peptide: {DOTA}-[βAla]CPPTEFCDH[NMeF]RD-NH2
modifications: linker 2-8 via mXylylene
SMILES: C[C@@H](O)[C@@H]1NC(=O)[C@@H]2CCCN2C(=O)[C@@H]2CCCN2C(=O)[C@@H](NC(=O)CCNC(=O)CN2CCN(CC(=O)O)CCN(CC(=O)O)CCN(CC(=O)O)CC2)CSCc2cccc(c2)CSC[C@@H](C(=O)N[C@@H](CC(=O)O)C(=O)N[C@@H](Cc2c[nH]cn2)C(=O)N(C)[C@@H](Cc2ccccc2)C(=O)N[C@@H](CCCNC(=N)N)C(=O)N[C@@H](CC(=O)O)C(N)=O)NC(=O)[C@H](Cc2ccccc2)NC(=O)[C@H](CCC(=O)O)NC1=O
notes: also called 3BP-3264
B5: Ac-Met-[Cys(3MeBn)-Aib-Pro-Thr-Glu-Phe-Cys]-Asp-His-Phe-Arg-Asp-NH2 (peptide)
peptide: Ac-MC[Aib]PTEFCDHFRD-NH2
modifications: linker 2-8 via mXylylene
SMILES: CSCC[C@H](NC(C)=O)C(=O)N[C@H]1CSCc2cccc(c2)CSC[C@@H](C(=O)N[C@@H](CC(=O)O)C(=O)N[C@@H](Cc2c[nH]cn2)C(=O)N[C@@H](Cc2ccccc2)C(=O)N[C@@H](CCCNC(=N)N)C(=O)N[C@@H](CC(=O)O)C(N)=O)NC(=O)[C@H](Cc2ccccc2)NC(=O)[C@H](CCC(=O)O)NC(=O)[C@H]([C@@H](C)O)NC(=O)[C@@H]2CCCN2C(=O)C(C)(C)NC1=O
notes: also called 3BP-3204
B6: Ac-Met-[cys(3MeBn)-Pro-Pro-Thr-Glu-Phe-cys]-Asp-His-Phe-Arg-Asp-NH2 (peptide)
peptide: Ac-M[dC]PPTEF[dC]DHFRD-NH2
modifications: linker 2-8 via mXylylene
SMILES: CSCC[C@H](NC(C)=O)C(=O)N[C@@H]1CSCc2cccc(c2)CSC[C@H](C(=O)N[C@@H](CC(=O)O)C(=O)N[C@@H](Cc2c[nH]cn2)C(=O)N[C@@H](Cc2ccccc2)C(=O)N[C@@H](CCCNC(=N)N)C(=O)N[C@@H](CC(=O)O)C(N)=O)NC(=O)[C@H](Cc2ccccc2)NC(=O)[C@H](CCC(=O)O)NC(=O)[C@H]([C@@H](C)O)NC(=O)[C@@H]2CCCN2C(=O)[C@@H]2CCCN2C1=O
notes: also called 3BP-3181

Target: T1, fibroblast activation protein (FAP) on FAP-expressing human WI-38 fibroblasts (human, UniProt Q12884 1-760)
T1 construct: also called human FAP
Assay: competitive FACS, WI-38 cells, vs Cy5 tracer m3; B = pIC50 7.1-8.0

Question: How did the “pIC50 Category (FACS)” value turn out when B1 was run?
Answer: 7.1 pIC50 and 8 pIC50

Question: For B2, which “pIC50 Category (FACS)” value is on record?
Answer: 7.1 pIC50 and 8 pIC50

Question: How did the “pIC50 Category (FACS)” value turn out when B3 was run?
Answer: 7.1 pIC50 and 8 pIC50

Question: With B4 as the binder, how does the “pIC50 Category (FACS)” value read?
Answer: 7.1 pIC50 and 8 pIC50

Question: How did the “pIC50 Category (FACS)” value turn out when B5 was run?
Answer: 7.1 pIC50 and 8 pIC50

Question: With B6 as the binder, how does the “pIC50 Category (FACS)” value read?
Answer: 7.1 pIC50 and 8 pIC50

Target: Recombinant human FAP (R&D systems, #3715-SE) (human, UniProt Q12884 26-760)
Assay: cell-based or functional assay

Question: With B1 as the binder, how does the “pIC50 Category (Activity)” value read?
Answer: 7.1 pIC50 and 8 pIC50

Question: For B2, which “pIC50 Category (Activity)” value is on record?
Answer: 7.1 pIC50 and 8 pIC50

Question: With B3 as the binder, how does the “pIC50 Category (Activity)” value read?
Answer: 6.1 pIC50 and 7 pIC50

Question: B4 was tested. Which “pIC50 Category (Activity)” value did it give?
Answer: 7.1 pIC50 and 8 pIC50

Question: With B5 as the binder, how does the “pIC50 Category (Activity)” value read?
Answer: 7.1 pIC50 and 8 pIC50

Question: For B6, which “pIC50 Category (Activity)” value is on record?
Answer: 7.1 pIC50 and 8 pIC50
